From patent US20230295310A1 (ABCELLERA BIOLOGICS, published 2023)
Substitutions are numbered along the chain they refer to.

B1: mAb 137 (antibody, V domains shown)
VH: QVQLVESGGGVVQPGRSLRLSCAASGFTFSTYGMHWVRQAPGKGLEWVAVIWYDGSHKYYADSVKGRFTISRDNSKKTLYLQMNSLRAEDTGIYYCARTGISGNMSYFYFDHWGQGILVTVSS
VL: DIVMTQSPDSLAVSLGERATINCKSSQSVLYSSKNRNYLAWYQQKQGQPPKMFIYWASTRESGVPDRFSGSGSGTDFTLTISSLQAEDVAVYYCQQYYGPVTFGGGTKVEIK
B2: mAb 164 (antibody, V domains shown)
VH: EVQLVESGGGLVKTGGSLRLSCVASGFSFKKAWMNWVRQAPGKGLEWVGRIKRNTDGGTADYAAPVKGRFTLSRDDSKKTLFLQMNSLKTEDTAVYYCTTLDSSSYYVGYYYMDVWGKGTTVTVSS
VL: DIQMTQSPSSVSASVGDRVTITCRASQDIKNWLAWYQQKPGKAPKLLIYTASSLQSGVPSRFSGSGSGTDFTLTIGSLQPEDFATYYCQQAHSLPITFGQGTRLEIK
B3: mAb 127 (antibody, V domains shown)
VH: B2 VH with L18H, T55S, A60T, T71I, K79N, F82Y, Y106W
VL: B2 VL with K30N, L46I, S53N, G76S, S77T, Y87F, S93G
B4: mAb 130 (antibody, V domains shown)
VH: B2 VH with T55S, T59A, A60T, G68D, K79N, F82Y, Y106W
VL: B2 VL with Q3H, V15L, I21F, K30N, K39R, G76S, E105G
B5: mAb 129 (antibody, V domains shown)
VH: B2 VH with G10D, T59A, A60T, G68D, K79N, F82Y, Y106W
VL: B2 VL with Q3H, V15L, I21F, K30N, K45R, G76S, E81D, E105G, K107E
B6: mAb 165 (antibody, V domains shown)
VH: B2 VH with K79R, F82Y, Y106R
VL: B2 VL with T20I, K30N, A43V
B7: mAb 166 (antibody, V domains shown)
VH: B2 VH with K43R, A60T, K79N, T80M, F82Y, Y106L
VL: B2 VL with K30N, G76S, Y87F, K107T
B8: mAb 169 (antibody, V domains shown)
VH: B2 VH
VL: B2 VL with T20I, K30N, T72I
B9: mAb 128 (antibody, V domains shown)
VH: EVQLVESGGGLVQPGRSLRLSCAASGFTFDDYTMHWVRQAPGKGLEWVSGISWNSGSIGYADSVKGRFTISRDNAKNSLYLQMNSLRAEDTALYYCAKDSSGYGYYYYYSMDVWGKGTTVTVSS
VL: EIVMTQSPATLSVSPGERATLSCRASQSVSSNLAWYQQKPGQAPRLLIYGASTRATGIPARFSGSGSGTEFTLTISSLQSEDFAVYYCQLYYNWPHFGQGTRLAIK
B10: mAb 119 (antibody, V domains shown)
VH: B9 VH with A97S, Y107L, Y108N, M111L
VL: EIVMTQSPATLSVSPGERATLSCRASQSVSNLAWYQQKPGQAPRLLIYGASTRATGIPARFSGSGSGTEFTLTISSLQSEDFAVYYCQQYNNWPHFGQGTRLQIK
B11: mAb 160 (antibody, V domains shown)
VH: B9 VH with A24V, D30N, A40V, Y95F, Y105H, S110Y, K116R
VL: B9 VL with S30R, S31K, Y92N, A104E
B12: mAb 162 (antibody, V domains shown)
VH: B9 VH with D31N, T33A, Q82E, M83L, Y108N, S110Y
VL: B9 VL with S30R, R61K, L90Y, A104E
B13: mAb 126 (antibody, V domains shown)
VH: B9 VH with D30N, A40V, G59D, S110Y
VL: B9 VL with S31I, Y92H, A104E
B14: mAb 118 (antibody, V domains shown)
VH: B9 VH with A97S, Y107L, Y108N, M111L
VL: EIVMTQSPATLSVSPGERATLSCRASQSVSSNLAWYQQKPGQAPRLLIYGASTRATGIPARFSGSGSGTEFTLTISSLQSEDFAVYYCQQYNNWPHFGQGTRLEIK
B15: mAb 159 (antibody, V domains shown)
VH: B9 VH with D30N, D31G, A40V, I58V, Y80F, Y105H, S110Y
VL: B9 VL with S30R, S31N, V85L, Y92N, A104E
B16: mAb 141 (antibody, V domains shown)
VH: QVQLVQSGAEVKKPGASVKVSCKASGYTFTSYYIHWVRQAPGQGLDWMGIINPSGGITGYAQKLQGRVTMTRDTSTTTVYMELSSLRSDDTAVYYCARGVRGNYYYYYMDVWGKGTTVTVSS
VL: EIVLTQSPDFQSVTPKEKVTITCRASQSIGSKLHWYQQKPDQSPKLLIKYASQSFSGVPSRFSGSGSGTDFNLTINSLEAEDAATFYCHQSSGLPYTFGQGTKLEIK
B17: mAb 136 (antibody, V domains shown)
VH: QVQLVESGGGVVQPGRSLRLSCAASGFTFSIYGMHWVRQAPGKGLEWVAVIWHDGSNKYYADSVKGRFTISRDNSKNTLYLQMNSLRAEDTAVYYCARTGITGTKAYFYFDYWGQGTLVTVSS
VL: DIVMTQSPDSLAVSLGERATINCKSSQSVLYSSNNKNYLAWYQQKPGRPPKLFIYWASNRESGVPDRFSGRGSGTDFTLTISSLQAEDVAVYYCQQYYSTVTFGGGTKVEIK
B18: mAb 142 (antibody, V domains shown)
VH: B17 VH with I31S, H53Y, K105T, Y112S
VL: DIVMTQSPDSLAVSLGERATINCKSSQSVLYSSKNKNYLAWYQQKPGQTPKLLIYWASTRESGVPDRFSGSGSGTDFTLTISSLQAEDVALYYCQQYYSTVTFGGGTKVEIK

Biological target: T1, cynomolgus monkey CD3 expressed on primary T cells (cynomolgus monkey, UniProt Q95LI5 22-198; Q95LI8 22-171; Q95LI7 23-181)
T1 construct: whole, on cells; CD3 complex on purified cynomolgus monkey T cells; also called cyno CD3
Assay: flow cytometry, 25 nM, cyno primary T cells
How it was run: (§1)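 Values are fold over isotype: median fluorescence intensity of each antibody relative to isotype control after a 30-minute, 4° C incubation at 25 nM with CD3-bearing cells in PBS containing 2% FBS.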

T1 sequence (Q95LI5 22-198, chain 1 of 3): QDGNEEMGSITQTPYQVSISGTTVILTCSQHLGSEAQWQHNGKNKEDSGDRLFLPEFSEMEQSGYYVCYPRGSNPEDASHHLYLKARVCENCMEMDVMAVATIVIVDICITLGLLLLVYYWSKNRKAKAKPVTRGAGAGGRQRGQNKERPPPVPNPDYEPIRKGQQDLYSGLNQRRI
T1 sequence (Q95LI8 22-171, chain 2 of 3): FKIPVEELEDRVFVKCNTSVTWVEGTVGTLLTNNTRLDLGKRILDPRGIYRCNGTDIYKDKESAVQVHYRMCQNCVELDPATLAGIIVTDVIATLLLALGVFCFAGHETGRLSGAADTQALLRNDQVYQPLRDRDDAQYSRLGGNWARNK
T1 sequence (Q95LI7 23-181, chain 3 of 3): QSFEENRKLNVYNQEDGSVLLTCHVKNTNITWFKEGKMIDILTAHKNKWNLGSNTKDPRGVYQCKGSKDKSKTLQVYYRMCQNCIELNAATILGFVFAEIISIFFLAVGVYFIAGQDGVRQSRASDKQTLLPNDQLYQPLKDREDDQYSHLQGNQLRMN

binding result | Binder
no binding (tested: FOI >=10 = positive) | B1
no binding (tested: FOI >=10 = positive) | B2
no binding (tested: FOI >=10 = positive) | B3
no binding (tested: FOI >=10 = positive) | B4
no binding (tested: FOI >=10 = positive) | B5
no binding (tested: FOI >=10 = positive) | B6
no binding (tested: FOI >=10 = positive) | B7
no binding (tested: FOI >=10 = positive) | B8
no binding (tested: FOI >=10 = positive) | B9
no binding (tested: FOI >=10 = positive) | B10
no binding (tested: FOI >=10 = positive) | B11
no binding (tested: FOI >=10 = positive) | B12
no binding (tested: FOI >=10 = positive) | B13
no binding (tested: FOI >=10 = positive) | B14
no binding (tested: FOI >=10 = positive) | B15
no binding (tested: FOI >=10 = positive) | B16
no binding (tested: FOI >=10 = positive) | B17
no binding (tested: FOI >=10 = positive) | B18

Biological target: T2, human CD3 expressed on cells (human, UniProt P07766 23-207; P04234 22-171; P09693 23-182)
T2 construct: whole, on cells; CD3 complex on Jurkat cells and on human primary T cells
Assay: flow cytometry, 25 nM
How it was run: as §1

T2 sequence (P07766 23-207, chain 1 of 3): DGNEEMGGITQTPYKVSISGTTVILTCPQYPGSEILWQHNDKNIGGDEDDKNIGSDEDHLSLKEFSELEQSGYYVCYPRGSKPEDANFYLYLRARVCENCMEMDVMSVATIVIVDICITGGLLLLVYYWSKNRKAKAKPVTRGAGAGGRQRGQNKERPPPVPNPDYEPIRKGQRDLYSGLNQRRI
T2 sequence (P04234 22-171, chain 2 of 3): as the sequence (Q95LI8 22-171, chain 2 of 3) above, with V5I, K15N, V20I, T32S, N33D, N34I, A64T, N74S, L83V, R141H counted along it
T2 sequence (P09693 23-182, chain 3 of 3): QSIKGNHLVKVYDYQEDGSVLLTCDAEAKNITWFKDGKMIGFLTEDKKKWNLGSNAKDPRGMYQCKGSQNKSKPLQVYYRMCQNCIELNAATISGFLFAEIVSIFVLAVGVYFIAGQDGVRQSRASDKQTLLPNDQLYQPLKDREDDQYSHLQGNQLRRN

Human primary T Cell Binding (FOI) | Jurkat Cell Binding (FOI) | Binder
158 | 151 | B1
237 | 137 | B2
172 | 155 | B3
165 | 155 | B4
169 | 157 | B5
241 | 154 | B6
266 | 159 | B7
264 | 173 | B8
101 | 97.1 | B9
95.4 | 90.4 | B10
169 | 115 | B11
160 | 111 | B12
97.6 | 97 | B13
84.7 | 83.8 | B14
171 | 125 | B15
310 | 183 | B16
86 | 90.9 | B17
59.6 | 65.5 | B18
